# According to patent publication US20240361320A1:
# Molecular target: SARS-CoV-2 3CL^pro enzyme (Recombinant derived from Escherichia coli, ab277614, ABCAM; SEQ ID NO:2) (SARS-CoV-2) (UniProt P0DTC1)
# Test: cell-based or functional assay
substance,measurement,value
"myoglobin antibody (Monoclonal rabbit-derived, ab77232, ABCAM; binding to SEQ ID NO:5)",oxidation peak shift (ΔEPeak) of pBQ,0 mV
